B1: farletuzumab-IgG1 (antibody, V domains shown)
VH: EVQLVESGGGVVQPGRSLRLSCSASGFTFSGYGLSWVRQAPGKGLEWVAMISSGGSYTYYADSVKGRFAISRDNAKNTLFLQMDSLRPEDTGVYFCARHGDDPAWFAYWGQGTPVTVSS
VL: DIQLTQSPSSLSASVGDRVTITCSVSSSISSNNLHWYQQKPGKAPKPWIYGTSNLASGVPSRFSGSGSGTDYTFTISSLQPEDIATYYCQQWSSYPYMYTFGQGTKVEIK
notes: IgG1; source: CHO-S, transfected, purified (protein A)
B2: farletuzumab-FuG1 (antibody, V domains shown)
VH: B1 VH
VL: B1 VL
notes: also called farletuzumab-FuGi

Molecular target: T1, IgG4-Fc tagged rFOLR1 (Homo sapiens (assumed), UniProt P15328)
T1 construct: also called recombinant IgG4-Fc FOLR1; folate receptor alpha-1; source: CHO-S, transfected, purified (protein A)
Experiment: ELISA; IgG4-Fc tagged rFOLR1 (2 ug/mL) coated on 96-well plates overnight; antibodies 50 nM to 0.048 nM, 1 h at 37 C; detected with HRP anti-human IgG1
Conditions: both partners purified

Row | Binder | binding result
1 | B1 | binds
2 | B2 | binds

Source: article PMC8826744 (Microbiology Spectrum, 2022)
